Measurements: the RNAGym collection of RNA variant scans (doi:10.1073/pnas.2313332121)

B1: TPR t1 (parent)
chain: GACCAAUCUGCCCUCAGAGCUCGAGAACAUCUUCGGAUGCAGAGGAGGCAGGCUUCGGUGGCGCGAUAGCGCCAACGUCCUCAACCUCCAAUGCAUCCCACCACAUGAUGAUGCCUGAAGAGCCUUGGUUUUUUG

Variants of: B1
Assay: polymerase ribozyme fitness, log enrichment relative to wild type (log ratio); higher = more active; in vitro selection for triplet polymerase activity
How it was run: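 For each subunit of a heterodimeric triplet polymerase ribozyme, a mutant library was built by PCR and transcribed, then taken through a single in vitro selection round in triplicate. Selection involved annealing to a biotinylated primer, the partner subunit and triplets, incubation frozen at −7 °C, gel excision of extended constructs, capture on streptavidin beads and RT-PCR. Genotypes were retained after Illumina sequencing of inputs and outputs only with ≥10 input reads and ≥1 read in each output. Fitness is defined as the logarithm of a genotype's enrichment relative to wild-type enrichment, using inverse-variance-weighted averages across replicates, with the logarithm taken to base 2.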

Row | Variant | polymerase ribozyme fitness (log ratio)
1 | GACCAAUCAGCCCUCAGAGCUCGAGUACAUCUUCGGAUGCAGAGGAGGCAGGCUUCGGUGGCGCGAUAGCGCCAACGUCCUCAACCUCCAAUGCAUCCCACCACAUGAUGAUGCCUGAAGAGCCUUGGUUUUUUG | -1.79
2 | GACCAAUUUGCCCUCAGAGCUCGAGAACAUCUUCGGAUGCAGAGGAGGCAGGCUUCGGUGGCGCGAUAGCGCCAACGUCCUCAACCUCCAAUGCAACCCACCACAUGAUGAUGCCUGAAGAGCCGUGGUUCUUUG | -1.53
3 | GACCAAUUUGCCCUCAGAGCUCGAGAACAUCUUCGGAUGCAGAGGAGGCAGGCUUCGGUGGCGCGAUAGCGCCAACGGCCUCAACCUCCAAUGCAUCUCACCACAUGAUGAUGCCUGAAGAGCCUUGGUUUUUUG | -0.651
4 | GACCAAUCAGCCCUCAGAGCUCGAGGACAUCUUCGGAUGCAGAGGAGGCAGGCUUCGGUGGCGCGAUAGCGCCAACGUCCUCAACCUCCAAUGCAUCCCAGCAAAUGAUGAUGCCUGAAGAACCUUGGUUUUUUG | -3.48
5 | GACCAAUUUGCCCUCAGAGCUCGAGAACAUCUUCGGAUGCAGAGGAGGCAGGCUGCGGUGGCGCGAUAGCGCCAACGUCCUCAACCUCCAAUGCAUCCCACCACAUGAUGAUCCCUGAAGAGCCUUGGUUUUUUG | -1.85
6 | GACCAAUCAGCCCUCGGAGCUCGAGAACAUCUUCGGAUGCAGAGGAGGCAGGCUUCGGUGGCGCGAUAGCGCCAACGUCCUCAACCUCCAAUACAUCCCACCACAUGAUGAUGCCUAAAGAGCCUUGGUUUUUUG | -0.214
7 | GACCAAUCAGCCCUCAGUGCUCGAGAACAUCUUCGGAUGCAGAGGAGGCAGGCUUCGGUGGCGCGAUAGCGCCAACGUCCUCAACCUCCAACGCAUCCCACCACAUGAUGAUGCCUGAAGAGCCUUGGUUUUUUG | -2.53
8 | GACCAAUCAGCCCUCAGAGCUCGAGAUCAUCUUCGGAUGCAUAGGAGGCAGGCUUCGGUGGCGCGAUAGCGCCAACGUCCUCAACCUCCAAUGCAUCCCACCACAUGAUGAUGCCUGAAGAGCCUUGGUUUUUUG | -4.71
9 | GACCAAUCAGCCCUCAGAGCUCGAGAACUUCUUCGGAUGCAGAGGAGGCAGGCUUCGGUGGCACGAUAGCGCCAACGUCCUCAACCUCCAAUGCAUCCCACCAAAUGAUGAUGCCUGAAGAGCCUUGGUUUUUUG | -3.02
10 | GACCAAUUUGCCCUCAGAGCUCGAGAACAUCCUCGGAUGCAGAGGAGGCAGGCUUCGGUGGAGCGAUAGCGCCAACGUCCUCAACCUCCAAUGCAUCCCACCACAUGAUGAUGCCUUAAGAGCCUUGGUUUUUUG | -2.35
11 | GACCAAUUUGCCCUCAGAGCUCGAGAACAUCUUCGGAGGCAGAGGAGGCAGGCUUCGGUGUCGCGAUAGCGCCAACGUCCUCAACCUCCAAUACAUCCCACCACAUGAUGAUGCCUGAAGAGCCUUGGUUUUUUG | -4.11
12 | GACCAAUCAGCCCUCAGAGCUCGAGACCACCUUCGGAUGCAGAGGAGGCAGGCUUGGGUGGCGCGAUAGCGCCAACGUCCUCAACCUCCAAUGCAUCCCACCACAUGAUGUUGCCUGAAGAGCCUUGGUUUUUUG | -4.95
13 | GACCAAUUUGCCCUCAGAGCUCGAGAACAUCUUCGGAUGCAGAGGAGGCAGGCUUCGGUGGCGCGAUAGCGCCAACGUCCUCAACCUCCAAUGCAUCCCACCACAUGAUGAUGCCUGAAGAGCCAUGGUGUUUUG | -0.351
14 | GACCAAUUUGCCCUCAGAGCAUGAGAGCAUGUUCGGAUGCAGAGGAGGCAGGCUUUGGUAGCGCGAUAGCGCCAACGUCCUCAACAGCCAAUGCAUCCCACCACAUGAUGAUGCAUGAAGCGCCUUGGUUUUUUG | -5.4
15 | GACCAAUCAGCCCUCAGAGCUCGAGAACAUCUUCGGAUGCAGAGGCGGCCGGCUUCGGUGGCGCGAUAGCGCCAACGUCCUGAACCUCCAAUGCAUCCCACCACAUGAUGAUGCCUGAAGAGCCUUGGUUUUUUG | -0.971
16 | GACCAAUUUGCCCUCAGAGCUCGAGAACAUCUUCGGAUGCAGAGGAGGCAGGCUUCGGAGGCGCGAUAGCGCCAACGUCCUCAACCUCCAAUGUAUCCCACCACAUGAUGAUGCCUGAUGAGCCUUGGUUUUUUG | -0.404
17 | GACCAAUCAGCCCUCUGAGCUCGAGAACAUCUUCGGAUGCAGAGGAGGCAGGCUUCGGUGGCACGAUAGCGCCAACGUCCUCAACCUCCAAUGCAUCCCACCACAUGAUGAUGCCUGAAGAGCCUUGGCUUUUUG | -1.11
18 | GACCAAUUUGCCCUCAGAGCUCGAGAACAUCAUCGGAUGCAGAGGAGGCAGGCUUCGGUGGCGCGAUAGCGCCAACGUCCUCAACCUCCAAUGCAACCCACCACAUGAUGAUGCCUGAAGCGCCUUGGUCUUUUG | -3.85
19 | GACCAAUCAGCCCUCAGAGCUCGAGAACAUCUUCGGCUGCAGAGGAGGCAGGCUUCGGUGGCCCGAUAGCGCCAACGUCCUCAACCUCCAAUGCAUCCCACCACAUGAUGAUGCCUGAAGAGCCUUGGUUUUUUG | -0.708
20 | GACCAAUCAGCCCUCAGCGCUCGAGAACAUCUUCGGAUGCAGAAGAGGCAGGCUUCGGUGGCGCGAUAGUGCCAACGUCCUCAACCUCCAAUCCAUCCCACCACAUGAUGAUGCCUGAAGAGCCUUGGUUUUUUG | -4.58
21 | GACCAAUUUGCCCUCAGAGCUCGAGAACAUCUUCGGAUGCAGAGGAGGCAGGCUUCGGUGGCGCGAUAGCGCCAACGUCCUCAACCUCCAAUGCACCCCACCACAUGAUGAUGCCUGAAGAGCCUUGGUUUUUUG | 0.939
